Test [1] concerns the target T1, rhesus-human chimeric CD11a (human CD11a with a rhesus I-domain) (human, UniProt P20701 26-1170).
T1 construct: whole, on cells; also called Rh/HuCD11a
T1 sequence (looked up): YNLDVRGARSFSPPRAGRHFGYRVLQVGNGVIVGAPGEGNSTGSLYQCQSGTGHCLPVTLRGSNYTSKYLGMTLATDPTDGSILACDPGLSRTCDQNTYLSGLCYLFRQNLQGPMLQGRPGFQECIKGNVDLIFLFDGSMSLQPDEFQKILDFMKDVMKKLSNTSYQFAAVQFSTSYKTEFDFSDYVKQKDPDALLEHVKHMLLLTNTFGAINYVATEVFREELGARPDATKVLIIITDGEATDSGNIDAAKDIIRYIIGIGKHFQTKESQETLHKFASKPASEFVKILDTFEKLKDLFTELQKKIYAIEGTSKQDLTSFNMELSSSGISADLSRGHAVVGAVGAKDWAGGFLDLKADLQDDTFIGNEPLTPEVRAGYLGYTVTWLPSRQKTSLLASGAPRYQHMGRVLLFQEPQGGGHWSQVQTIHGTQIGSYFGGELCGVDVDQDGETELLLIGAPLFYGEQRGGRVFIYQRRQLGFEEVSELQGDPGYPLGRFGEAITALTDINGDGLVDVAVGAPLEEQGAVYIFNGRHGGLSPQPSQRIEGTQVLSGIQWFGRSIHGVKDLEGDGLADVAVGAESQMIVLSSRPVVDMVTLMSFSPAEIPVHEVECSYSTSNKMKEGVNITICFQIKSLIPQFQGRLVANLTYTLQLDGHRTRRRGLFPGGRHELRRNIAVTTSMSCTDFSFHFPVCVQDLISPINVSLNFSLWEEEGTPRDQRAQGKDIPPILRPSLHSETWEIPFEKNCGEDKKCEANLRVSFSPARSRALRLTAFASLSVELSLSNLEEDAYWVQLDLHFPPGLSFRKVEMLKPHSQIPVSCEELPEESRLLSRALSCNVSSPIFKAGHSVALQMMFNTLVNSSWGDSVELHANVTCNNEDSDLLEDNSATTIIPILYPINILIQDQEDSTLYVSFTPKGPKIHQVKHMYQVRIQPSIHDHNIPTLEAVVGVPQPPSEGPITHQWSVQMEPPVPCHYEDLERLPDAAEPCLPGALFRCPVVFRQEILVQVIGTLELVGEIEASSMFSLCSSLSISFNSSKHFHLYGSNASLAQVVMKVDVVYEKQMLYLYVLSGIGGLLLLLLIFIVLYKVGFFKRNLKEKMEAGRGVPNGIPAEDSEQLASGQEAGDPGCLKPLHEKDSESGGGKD
Nature of the test: blocking of adhesion of Rh/HuCD11a-293 cells to human keratinocytes.

Test [2] has as its target T2, rhesus CD11a (rhesus, UniProt H9Z8N3 26-1169).
T2 sequence: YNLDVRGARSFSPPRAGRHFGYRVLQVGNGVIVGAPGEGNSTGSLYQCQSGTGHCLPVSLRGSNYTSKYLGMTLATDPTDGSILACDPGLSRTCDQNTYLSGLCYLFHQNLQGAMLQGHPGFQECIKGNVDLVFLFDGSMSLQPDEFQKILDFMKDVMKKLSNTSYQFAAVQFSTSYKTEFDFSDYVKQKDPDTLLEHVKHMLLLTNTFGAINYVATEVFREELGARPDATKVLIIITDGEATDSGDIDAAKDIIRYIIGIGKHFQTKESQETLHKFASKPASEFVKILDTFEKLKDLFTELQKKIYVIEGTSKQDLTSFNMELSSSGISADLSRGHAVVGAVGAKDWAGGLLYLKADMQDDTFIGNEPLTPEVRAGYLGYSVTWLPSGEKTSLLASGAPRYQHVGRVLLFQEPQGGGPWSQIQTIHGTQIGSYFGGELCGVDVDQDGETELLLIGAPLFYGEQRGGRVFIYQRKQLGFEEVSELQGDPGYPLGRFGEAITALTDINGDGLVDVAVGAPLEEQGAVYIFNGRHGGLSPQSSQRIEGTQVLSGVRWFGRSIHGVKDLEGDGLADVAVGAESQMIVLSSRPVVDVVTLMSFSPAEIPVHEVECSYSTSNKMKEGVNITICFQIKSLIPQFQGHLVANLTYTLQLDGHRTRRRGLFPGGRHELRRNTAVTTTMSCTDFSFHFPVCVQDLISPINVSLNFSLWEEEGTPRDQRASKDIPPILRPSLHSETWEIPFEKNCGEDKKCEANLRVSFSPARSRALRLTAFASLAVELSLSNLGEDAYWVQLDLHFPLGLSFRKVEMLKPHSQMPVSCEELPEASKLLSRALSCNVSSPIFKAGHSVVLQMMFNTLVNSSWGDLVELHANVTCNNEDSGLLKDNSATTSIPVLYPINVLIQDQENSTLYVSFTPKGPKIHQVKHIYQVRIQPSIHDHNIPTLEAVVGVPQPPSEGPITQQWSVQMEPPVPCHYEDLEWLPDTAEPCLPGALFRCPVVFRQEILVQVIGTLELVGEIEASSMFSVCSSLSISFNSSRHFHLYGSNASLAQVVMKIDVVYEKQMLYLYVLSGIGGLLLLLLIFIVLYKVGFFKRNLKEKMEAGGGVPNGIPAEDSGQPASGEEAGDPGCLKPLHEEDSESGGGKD
As to the kind of experiment: cell-based or functional assay.

Test [3] has as its target T2, rhesus CD11a. Nature of the test: blocking of rhesus lymphocyte adhesion to human keratinocytes.
For test [4], the target named is T1, rhesus-human chimeric CD11a (human …). As to the kind of experiment: blocking of adhesion of Rh/HuCD11a-transfected 293 cells to human keratinocytes.
In test [5] the target is T2, rhesus CD11a. Nature of the test: saturation binding, Kd(app).
In test [6] the target is T2, rhesus CD11a. Nature of the test: blocking of rhesus lymphocyte adhesion to human keratinocytes. The source holds these as a separate data set.
Test [7] addresses T2, rhesus CD11a. Nature of the test: blocking of rhesus lymphocyte adhesion to recombinant human ICAM-1 on plates.
Test [8] deals with T2, rhesus CD11a. As to the kind of experiment: cell binding, rhesus CD11a.
Test [9] deals with T2, rhesus CD11a. As to the kind of experiment: blocking of rhesus lymphocyte adhesion to recombinant human ICAM-1 on plates. The source holds these as a separate data set.

B1: rhesus-binding MHM24 IgG1 (rhesusized antibody mutant) (antibody, V domains shown)
VH: EVQLVESGGGLVQPGGSLRLSCAASGYSFTGHWMNWVRQAPGKGLEWVGMIAPASSSTRYNQKFKDRFTISVDKSKNTLYLQMNSLRAEDTAVYYCARGIYFYGTTYFDYWGQGTLVTVSS
VL: DIQMTQSPSSLSASVGDRVTITCRASKTISKYLAWYQQKPGKAPKLLIYSGSTLQSGVPSRFSGSGSGTDFTLTISSLQPEDFATYYCQQHNEYPLTFGQGTKVEIKR
B1: the “fold down from MHM23” value in [1] is 4 fold. Also, the “IC50, rhesus mixed lymphocyte response (MLR)” value with rhesus CD11a [2] was 23.4 nM. The IC50 with rhesus CD11a [3] came out at 119 nM; in [4], 4.9 nM; with rhesus CD11a [7], 5.3 nM. In the test with rhesus CD11a [5], the “fold down of Kd from the Kd of HuIgG1 for human CD11a” value is roughly 26 fold. The “fold less efficacious than MHM23” value in the test with rhesus CD11a [6] was 74 fold; with rhesus CD11a [9] it was 4 fold. In addition, the “fold improvement over the EC50 of HuIgG1 for rhesus CD11a” value with rhesus CD11a [8] was 240 to 415 fold. Moreover, the “fold weaker than the EC50 of HuIgG1 for human CD11a” value with rhesus CD11a [8] is 3 to 5 fold.
